# B1: mab34 (monoclonal neo-epitope anti-Aβ34 antibody) (antibody, V domains shown)
# VH: VKLVESGGGLVKPGGSLKLSCAASGFTFSTYAMSWVRQTPEKRLEWVASISSGGNTYYPDSVKGRFTISRDNARHILYLQMSSLRSEDTAMYYCARDSYYFGNSVYYAMDYWGQGTSVTVSS
# VL: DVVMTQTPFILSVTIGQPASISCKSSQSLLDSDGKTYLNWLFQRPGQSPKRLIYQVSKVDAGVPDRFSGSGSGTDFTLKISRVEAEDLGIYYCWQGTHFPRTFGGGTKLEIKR
# notes: Mouse monoclonal from a hybridoma (Balb/cJ mice immunised with Aβ27-34-KLH); In SPR it was captured on an anti-mouse Fc surface
# Legend:
# [1] = target: T1, synthetic Aβ35 peptide (UniProt P05067 672-706); assay: SPR (Biacore T200), single-cycle kinetics, peptide as analyte (7.8-2000 nM) over mab34 captured on an anti-mouse Fc sensor
# T1 construct: domain: Aβ35
# T1 sequence (P05067 672-706 limits assumed): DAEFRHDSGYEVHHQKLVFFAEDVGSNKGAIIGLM
# Procedure: (§1) Using a BIACORE T200 system (GE Healthcare Bio-Sciences AB, Upsala, Sweden; v2.0 Control and v1.0 Evaluation software), SPR experiments were performed at 25° C. using filtered (0.2 μm) and degassed HBS-EP+ buffer (10 mM HEPES pH 7.4; 150 mM NaCl; 3 mM EDTA; 0.05% (v/v) Tween™-20). Using Biacore's Amine Coupling Kit, Mouse Antibody Capture Kit, and CM5 sensors, an anti-mouse Fc antibody (14 μg/mL in 10 mM sodium acetate pH 5.0) was immobilized to the flow cells (8000 RU each) as recommended by GE. To assess binding specificity, a variety of Aβ peptides (0 2 μM; 4-fold dilution series) were titrated over reference (anti-mouse Fc antibody only) and active (1000 RU mab34 captured to anti-mouse Fc antibody) surfaces in single-cycle kinetic mode (25 uL/min.×5 min. association+10 min. dissociation). Between each sample series, surfaces were regenerated at 50 μL/min. using two 30 sec pulses of Pierce Gentle Ag/Ab Elution Buffer pH 6.6 (Thermo Scientific #21027) as well as 10 mM glycine pH 1.7.
# [2] = target: T2, synthetic Aβ42 peptide (UniProt P05067 672-713); assay: as above
# T2 construct: domain: Aβ42; also called Abeta42
# T2 sequence (P05067 672-713 limits assumed): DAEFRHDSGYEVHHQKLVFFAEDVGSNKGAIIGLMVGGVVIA
# Procedure: as §1
# [3] = target: T3, synthetic Aβ38 peptide (UniProt P05067 672-709); assay: as above
# T3 construct: domain: Aβ38
# T3 sequence (P05067 672-709 limits assumed): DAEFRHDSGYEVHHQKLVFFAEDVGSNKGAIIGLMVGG
# Procedure: as §1
# [4] = target: T4, synthetic Aβ40 peptide (UniProt P05067 672-711); assay: as above
# T4 construct: domain: Aβ40
# T4 sequence (P05067 672-711 limits assumed): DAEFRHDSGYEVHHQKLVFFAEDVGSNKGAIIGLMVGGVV
# Procedure: as §1
# [5] = target: Aβ34 G33A variant (G33A modified neo-epitope); assay: SPR (Biacore T200), single-cycle kinetics, Aβ34 variant peptide as analyte (7.8-2000 nM) over mab34 captured on an anti-mouse Fc sensor
# Chain of Aβ34 G33A variant (G33A modified neo-epitope) (peptide, as listed by the source G33A G33A G33A G33A): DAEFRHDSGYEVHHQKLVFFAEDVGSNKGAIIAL
# Procedure: as §1
# [6] = target: T5, synthetic Aβ34 peptide; assay: SPR (Biacore T200), multi-cycle titration of Aβ34 (0-1.6 µM, 3-fold series) over mab34 captured on an anti-mouse Fc sensor; steady-state affinity fit of Requilibrium against concentration
# T5 construct: Synthetic peptide from PSL, Germany
# T5 sequence (peptide, as listed by the source): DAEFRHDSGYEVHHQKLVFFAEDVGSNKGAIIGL
# Procedure: as §1, with “To assess binding specificity, a variety of Aβ peptides (0 2 μM; 4-fold dilution series) were titrated over reference (anti-mouse Fc antibody only) and active (1000 RU mab34 captured to anti-mouse Fc antibody) surfaces in single-cycle kinetic mode (25 uL/min.×5 min. association+10 min. dissociation).” left out
binder,measurement,setting,value
B1,binding result,[1],no binding (tested: 2000 nM)
same,binding result,[2],no binding (tested: 2000 nM)
same,binding result,[3],no binding (tested: 2000 nM)
same,binding result,[4],no binding (tested: 2000 nM)
same,binding result,[5],no binding (tested: 2000 nM)
same,Kd,[6],~40 nM

# Source: patent US20210285971A1 (ROYAL INSTITUTION FOR THE ADVANCEMENT OF LEARNING MCGILL …, published 2021)
